Source: PMC10397247

Columns and labels:
Assay in all cases: two-hybrid library CCmax;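 also: natural log of median RNA to DNA barcode read ratio; higher means stronger binding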
4H452-AA = molecular target: T1, 4H452-AA; conditions: mean of both orientations
T1 chain: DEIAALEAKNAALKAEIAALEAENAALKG

4H56-AA = molecular target: T2, 4H56-AA
T2 chain: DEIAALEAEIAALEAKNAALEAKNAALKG

4H3001-AA = molecular target: T3, 4H3001-AA; conditions: mean of both orientations
T3 chain: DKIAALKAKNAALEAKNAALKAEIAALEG

4H2754-AA = molecular target: T4, 4H2754-AA
T4 chain: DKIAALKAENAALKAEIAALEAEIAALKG

4H3438-AA = molecular target: T5, 4H3438-AA; conditions: mean of both orientations
T5 chain: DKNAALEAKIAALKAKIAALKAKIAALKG

4H2729-AA = molecular target: T6, 4H2729-AA; conditions: mean of both orientations
T6 chain: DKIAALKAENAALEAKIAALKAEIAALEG

4H678-AA = molecular target: T7, 4H678-AA; conditions: mean of both orientations
T7 chain: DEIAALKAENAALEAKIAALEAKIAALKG

4H2883-AA = molecular target: T8, 4H2883-AA; conditions: mean of both orientations
T8 chain: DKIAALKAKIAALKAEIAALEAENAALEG

4H780-AA = molecular target: T9, 4H780-AA; conditions: mean of both orientations
T9 chain: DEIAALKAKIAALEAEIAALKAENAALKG

4H2931-AA = molecular target: T10, 4H2931-AA; conditions: mean of both orientations
T10 chain: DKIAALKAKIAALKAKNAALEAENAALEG

4H3015-AA = molecular target: T11, 4H3015-AA; conditions: mean of both orientations
T11 chain: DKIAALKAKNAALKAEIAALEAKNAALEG

4H3073-AA = molecular target: T12, 4H3073-AA; conditions: mean of both orientations
T12 chain: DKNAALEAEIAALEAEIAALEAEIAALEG

4H_BCR = molecular target: T13, 4H_BCR; conditions: mean of both orientations
T13 chain: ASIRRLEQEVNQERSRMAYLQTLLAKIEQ

4H2949-AA = molecular target: T14, 4H2949-AA; conditions: mean of both orientations
T14 chain: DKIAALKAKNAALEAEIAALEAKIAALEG

4H2774-AA = molecular target: T15, 4H2774-AA; conditions: mean of both orientations
T15 chain: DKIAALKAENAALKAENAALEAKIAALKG

4H406-AA = molecular target: T16, 4H406-AA; conditions: mean of both orientations
T16 chain: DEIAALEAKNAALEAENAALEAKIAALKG

4H3606-AA = molecular target: T17, 4H3606-AA; conditions: mean of both orientations
T17 chain: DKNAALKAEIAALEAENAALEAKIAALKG

4H2837-AA = molecular target: T18, 4H2837-AA; conditions: mean of both orientations
T18 chain: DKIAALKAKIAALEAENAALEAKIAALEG

4H2466-AA = molecular target: T19, 4H2466-AA
T19 chain: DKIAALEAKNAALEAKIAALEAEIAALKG

4H342-AA = molecular target: T20, 4H342-AA; conditions: mean of both orientations
T20 chain: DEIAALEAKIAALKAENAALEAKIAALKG

GCN2_T = conditions: mean of both orientations
4H605-AA = molecular target: T21, 4H605-AA; conditions: mean of both orientations
T21 chain: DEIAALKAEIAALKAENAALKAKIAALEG

4H347-AA = molecular target: T22, 4H347-AA; conditions: mean of both orientations
T22 chain: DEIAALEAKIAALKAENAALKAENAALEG

4H2642-AA = molecular target: T23, 4H2642-AA; conditions: mean of both orientations
T23 chain: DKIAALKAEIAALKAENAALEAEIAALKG

4H906-AA = molecular target: T24, 4H906-AA; conditions: mean of both orientations
T24 chain: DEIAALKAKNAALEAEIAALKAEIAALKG

4H566-AA = molecular target: T25, 4H566-AA; conditions: mean of both orientations
T25 chain: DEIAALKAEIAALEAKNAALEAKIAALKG

4H717-AA = molecular target: T26, 4H717-AA; conditions: mean of both orientations
T26 chain: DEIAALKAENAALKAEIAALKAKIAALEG

4H454-AA = molecular target: T27, 4H454-AA; conditions: mean of both orientations
T27 chain: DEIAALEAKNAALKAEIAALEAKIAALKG

4H3427-AA = molecular target: T28, 4H3427-AA; conditions: mean of both orientations
T28 chain: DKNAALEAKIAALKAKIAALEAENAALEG

4H3343-AA = molecular target: T29, 4H3343-AA; conditions: mean of both orientations
T29 chain: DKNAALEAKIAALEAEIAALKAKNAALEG

4H3921-AA = molecular target: T30, 4H3921-AA
T30 chain: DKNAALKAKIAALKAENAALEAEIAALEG

4H249-AA = molecular target: T31, 4H249-AA; conditions: mean of both orientations
T31 chain: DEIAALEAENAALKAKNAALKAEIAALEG

4H3627-AA = molecular target: T32, 4H3627-AA
T32 chain: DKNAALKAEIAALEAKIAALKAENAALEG

4H3844-AA = molecular target: T33, 4H3844-AA; conditions: mean of both orientations
T33 chain: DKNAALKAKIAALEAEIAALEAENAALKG

4H2505-AA = molecular target: T34, 4H2505-AA; conditions: mean of both orientations
T34 chain: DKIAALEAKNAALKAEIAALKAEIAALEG

4H2732-AA = molecular target: T35, 4H2732-AA; conditions: mean of both orientations
T35 chain: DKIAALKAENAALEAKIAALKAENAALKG

4H429-AA = molecular target: T36, 4H429-AA; conditions: mean of both orientations
T36 chain: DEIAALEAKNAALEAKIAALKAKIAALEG

4H2617-AA = molecular target: T37, 4H2617-AA; conditions: mean of both orientations
T37 chain: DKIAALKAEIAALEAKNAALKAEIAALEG

4H3655-AA = molecular target: T38, 4H3655-AA; conditions: mean of both orientations
T38 chain: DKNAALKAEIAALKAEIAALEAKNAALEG

4H2944-AA = molecular target: T39, 4H2944-AA; conditions: mean of both orientations
T39 chain: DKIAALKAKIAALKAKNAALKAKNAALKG

4H317-AA = molecular target: T40, 4H317-AA; conditions: mean of both orientations
T40 chain: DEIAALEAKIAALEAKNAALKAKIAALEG

4H335-AA = molecular target: T41, 4H335-AA; conditions: mean of both orientations
T41 chain: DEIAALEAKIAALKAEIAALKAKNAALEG

4H3112-AA = molecular target: T42, 4H3112-AA; conditions: mean of both orientations
T42 chain: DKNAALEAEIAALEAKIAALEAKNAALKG

4H993-AA = molecular target: T43, 4H993-AA; conditions: mean of both orientations
T43 chain: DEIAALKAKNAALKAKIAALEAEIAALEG

4H881-AA = molecular target: T44, 4H881-AA; conditions: mean of both orientations
T44 chain: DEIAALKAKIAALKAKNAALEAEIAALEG

4H2575-AA = molecular target: T45, 4H2575-AA; conditions: mean of both orientations
T45 chain: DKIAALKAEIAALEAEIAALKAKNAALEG

4H794-AA = molecular target: T46, 4H794-AA; conditions: mean of both orientations
T46 chain: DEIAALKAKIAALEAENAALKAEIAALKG

4H_GCN4 = molecular target: 4H_GCN4
Chain of 4H_GCN4 (chain, as listed by the source): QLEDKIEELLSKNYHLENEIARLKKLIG

4H48-AA = molecular target: T47, 4H48-AA; conditions: mean of both orientations
T47 chain: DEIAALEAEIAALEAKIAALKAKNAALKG

4H2592-AA = molecular target: T48, 4H2592-AA; conditions: mean of both orientations
T48 chain: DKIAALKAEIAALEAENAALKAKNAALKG

4H_APH = molecular target: T49, 4H_APH
T49 chain: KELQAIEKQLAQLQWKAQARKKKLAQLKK

DKIAALEAKNAALEAKIAALEAEIAALKG [4H2466-AA]
interaction score (4H452-AA): -1.37
interaction score (4H56-AA): -2.04
interaction score (4H3001-AA): -1.55
interaction score (4H2754-AA): -0.538
interaction score (4H3438-AA): -0.928
interaction score (4H2729-AA): 0.493
interaction score (4H678-AA): -0.158
interaction score (4H2883-AA): -1.56
interaction score (4H780-AA): -1.2
interaction score (4H2931-AA): -1.81
interaction score (4H3015-AA): -1.65
interaction score (4H3073-AA): -1.43
interaction score (4H_BCR): -2.46
interaction score (4H2949-AA): -0.713
interaction score (4H2774-AA): -1.69
interaction score (4H406-AA): -1.25
interaction score (4H3606-AA): -1.47
interaction score (4H2837-AA): -1.28
interaction score (4H2466-AA): 1.31
interaction score (4H342-AA): -0.478
interaction score (GCN2_T): -1
interaction score (4H605-AA): -1.38
interaction score (4H347-AA): -2.11
interaction score (4H2642-AA): -0.362
interaction score (4H906-AA): -1.22
interaction score (4H566-AA): -1.51
interaction score (4H717-AA): -1.06
interaction score (4H454-AA): 0.993
interaction score (4H3427-AA): -1.39
interaction score (4H3343-AA): -1.23
interaction score (4H3921-AA): -1.23
interaction score (4H249-AA): -1.42
interaction score (4H3627-AA): -1.86
interaction score (4H3844-AA): -1.82
interaction score (4H2505-AA): -0.434
interaction score (4H2732-AA): -1.42
interaction score (4H429-AA): -0.101
interaction score (4H2617-AA): -1.65
interaction score (4H3655-AA): -1.35
interaction score (4H2944-AA): -1.57
interaction score (4H317-AA): -1.82
interaction score (4H335-AA): -1.59
interaction score (4H3112-AA): -1.92
interaction score (4H993-AA): 0.55
interaction score (4H881-AA): -2.04
interaction score (4H2575-AA): -1.2
interaction score (4H794-AA): -1.43
interaction score (4H_GCN4): -1.67
interaction score (4H48-AA): -1.11
interaction score (4H2592-AA): -1.71
interaction score (4H_APH): -0.895
